{"source": "paper PMC3672142", "about": "“A Binding-Site Barrier Affects Imaging Efficiency of High Affinity Amyloid-Reactive Peptide Radiotracers In Vivo” (PLoS ONE, 2013)", "key": {"[1]": {"system": "cardiac and pancreatic amyloid", "conditions": "SAP imaging; no reference printed at this sentence (refs [14], [15] for SAP imaging); cited from earlier work", "text": "Currently, there are no FDA-approved agents available in the USA for quantitative whole body imaging of visceral amyloid in vivo. […] However, there is no evidence that either this or the recently FDA-approved Aβ tracer Amyvid™ will facilitate detection of amyloid deposits in other visceral organs. Numerous amyloid-binding radiotracers have been described, e.g ..."}, "[2]": {"system": "AA amyloid", "set-up": "species or system H2-Ld-huIL-6 Tg Balb/c transgenic mice", "conditions": "mouse, in vivo, iv", "experimental": "AA amyloidosis was induced in H2-Ld-huIL-6 Tg Balb/c transgenic mice that constitutively express the human interleukin-6 transgene, [21] by iv administration of 10 µg of isolated amyloid enhancing factor (AEF – a suspension of AA amyloid fibril extract, [22]) in 100 µL of sterile phosphate-buffered saline (PBS). Mice used in these studies were 4–6 wk post induction. These studies were carried out in strict accordance with a protocol approved by the University of Tennessee Institutional Animal Care and Use Committee. All procedures were approved by the IACUC and were performed in accordance with the guidelines provided by OLAW and the Guide for the Care and Use of Laboratory Animals.\nMice, wild type or those with AA-amyloid, were injected iv in the lateral tail vein with ∼10 µg (∼150 µCi) of radioiodinated (^123I or ^125I) peptide p5, p5R, p5R(1–24) or p5R mixed with 1 mg of unlabeled p5R peptide. […]\nSamples of muscle, liver, spleen, pancreas, kidneys, heart, stomach, small and large intestines and lung tissue were harvested post mortem from every mouse. Each sample was placed into a tared, plastic vial, weighed and the ^125I or ^123I radioactivity measured using an automated Wizard 3 gamma counter (1480 Wallac Gamma Counter, Perkin Elmer). The biodistribution data were expressed as % injected dose/g tissue (% ID/g). […]"}}, "note": "No end group written: not given here."}
{"substance": "SAP: serum amyloid P component, used as 123I-SAP for planar scintigraphic imaging of amyloid", "values": [{"measurement": "detection of cardiac and pancreatic amyloid", "setting": "[1]", "result": "at best, poorly detected"}]}
{"substance": "GGGYSRAQRAQARQARQAQRAQRAQARQARQ [p5R]", "values": [{"measurement": "radioactivity in liver, spleen, pancreas and intestines compared to WT mice", "setting": "[2]", "result": "significant radioactivity seen in the liver, spleen, pancreas, and intestines as compared to the WT mice"}]}
